The results in this text go back to patent US20250223354A1 (BIOTHEUS, published 2025).

Like-named read-outs stand apart in the source and are kept apart here.

Experiment [1] has as its target T1, human TIGIT expressed on cells (human, UniProt Q495A1 22-244).
T1 construct: whole, on cells; cDNA encoding human TIGIT in pCHO1.0 for CHO cells; also called CHO-huTIGIT cells
T1 sequence (looked up): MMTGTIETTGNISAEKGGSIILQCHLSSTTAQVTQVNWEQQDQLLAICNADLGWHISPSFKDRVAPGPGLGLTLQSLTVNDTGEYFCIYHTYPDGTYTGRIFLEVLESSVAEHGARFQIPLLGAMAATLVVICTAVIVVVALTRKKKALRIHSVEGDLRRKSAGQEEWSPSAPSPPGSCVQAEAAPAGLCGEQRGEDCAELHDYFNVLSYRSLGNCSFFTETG
Put plainly: flow cytometry, competition with human CD155-mouse IgG2a Fc (2 ug/mL) on CHO-huTIGIT cells. The method, then:
(§1) Specifically, the CHO-huTIGIT cells were expanded and adjusted to a cell density of 2×10⁶ cells/mL, added to a 96-well flow plate at 100 μL/well, and centrifuged for later use. The purified antibody was diluted 3-fold with PBS starting at 400 nM for a total of 12 concentration gradients. The diluted sample was added at 60 μL/well to the cells-carrying 96-well flow plate, and incubated at 4° C. for 30 minutes. […] APC-conjugated goat anti-mouse IgG antibody diluted 100-fold with PBS was added at 100 μL/well, incubated at 4° C. for 30 minutes, and washed twice with PBS. Cells were resuspended with PBS at 100 μL/well, and detected on a CytoFlex flow cytometer, and the corresponding MFI was calculated.
For orientation: A flow cytometer gives signals particle by particle.

Experiment [2] has as its target T2, mouse TIGIT overexpressed on CHO cells (mouse, UniProt P86176 29-249).
T2 construct: whole, on cells; also called CHO-muTIGIT cells
T2 sequence (looked up): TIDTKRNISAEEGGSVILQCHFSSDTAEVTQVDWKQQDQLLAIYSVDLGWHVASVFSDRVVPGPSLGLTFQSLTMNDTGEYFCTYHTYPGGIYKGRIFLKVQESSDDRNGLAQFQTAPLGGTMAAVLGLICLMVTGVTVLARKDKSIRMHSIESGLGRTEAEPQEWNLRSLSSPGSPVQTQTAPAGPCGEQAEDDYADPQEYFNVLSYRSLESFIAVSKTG
Put plainly: flow cytometry, competition with mouse CD155-mouse IgG2a Fc (2 ug/mL) on CHO-muTIGIT cells. The method, then: as §1, with “The CHO-muTIGIT” for “Specifically, the CHO-huTIGIT”, “calculated. Graphpad software was used for graphing analysis to obtain IC₅₀ values.” for “calculated.”

Experiment [3] concerns the target T3, cynomolgus monkey TIGIT-his protein (cynomolgus monkey).
T3 construct: also called Cynomolgus TIGIT-his; not shown: his tag
The experiment is described as follows: BLI (ForteBio), antibody on AHQ sensor, 100 nM antigen, monovalent, 1:1 model. How it is done:
(§2) The antibody-loaded sensor was incubated in 100 nM target antigen to the plateau phase, and then the sensor was transferred to an analysis buffer and incubated for at least 2 minutes for measuring dissociation rate. The kinetic analysis was performed using a 1:1 binding model.
In general terms: Biolayer interferometry detects binding as a change in optical thickness at a sensor tip.

Experiment [4] deals with T4, human TIGIT-his protein (human, UniProt Q495A1 22-141).
T4 construct: not shown: his tag
T4 sequence: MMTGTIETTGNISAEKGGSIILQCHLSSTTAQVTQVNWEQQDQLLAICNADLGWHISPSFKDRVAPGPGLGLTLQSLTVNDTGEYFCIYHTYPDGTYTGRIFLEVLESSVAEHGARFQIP
The experiment is described as above. How it is done:
as §2

For experiment [5], the target named is T1, human TIGIT expressed on cells. Put plainly: flow cytometry, CHO-huTIGIT cells. An excerpt:
(§3) Specifically, CHO cells overexpressing human TIGIT (CHO-huTIGITcells), CHO cells overexpressing cynomolgus TIGIT (CHO-cynoTIGIT cells) and CHO cells overexpressing mouse TIGIT (CHO-muTIGIT cells) were generated by transfection of the pCHO1.0 vector (purchased from Invitrogen) with cDNA encoding human TIGIT, cynomolgus TIGIT and mouse TIGIT cloned into the multiple cloning site (MCS), respectively, followed by pressure screening. The overexpressing cells were expanded and adjusted to an appropriate cell density, and added to a 96-well flow cytometry plate. After centrifugation, the cells were added with a gradiently diluted sample to be tested, and incubated at 4° C. for 30 minutes. The cells were washed twice with PBS, and added with a fluorescent secondary antibody correspondingly diluted to an appropriate concentration, then incubated at 4° C. for 30 minutes, and washed twice with PBS. Cells were resuspended with PBS, and detected on a CytoFlex flow cytometer, and the corresponding MFI was calculated. Graphpad software was used for graphical analysis to obtain EC₅₀ values.

Experiment [6] concerns the target T5, cynomolgus TIGIT overexpressed on CHO cells (cynomolgus, UniProt A0A7N9I9V4 89-312).
T5 construct: whole, on cells; also called CHO-cynoTIGIT cells
The experiment is described as follows: flow cytometry, CHO-cynoTIGIT cells.
Text: as §3

The target of experiment [7] is T2, mouse TIGIT overexpressed on CHO cells. The experiment is described as follows: flow cytometry, CHO-muTIGIT cells.
Text: as §3

Experiment [8] concerns the target T5, cynomolgus TIGIT overexpressed on CHO …. Put plainly: flow cytometry on CHO cells overexpressing cynomolgus TIGIT, median fluorescence intensity PE-A; unit from the concentration axis.
Text: as §3, with “(CHO-huTIGIT cells),” for “(CHO-huTIGITcells),”

For another experiment, the target named is T6, mouse TIGIT-his protein (mouse, UniProt P86176 29-148).
T6 construct: not shown: his tag
T6 sequence: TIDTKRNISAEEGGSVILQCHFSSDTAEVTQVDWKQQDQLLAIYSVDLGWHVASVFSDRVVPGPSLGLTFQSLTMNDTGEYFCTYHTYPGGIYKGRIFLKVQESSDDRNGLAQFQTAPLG
The experiment is described as follows: BLI (ForteBio), IgG on AHQ sensor, monovalent. The method, then:
(§4) The antibody-loaded sensor was incubated in 100 nM TIGIT-his antigen to the plateau phase, and then the sensor was transferred to an analysis buffer and incubated for at least 2 minutes for measuring dissociation rate. The kinetic analysis was performed using a 1:1 binding model.

The target in experiment [9] is T1, human TIGIT expressed on cells. The experiment is described as follows: flow cytometry, CHO-huTIGIT cells.
Text: as §3, with “(CHO-huTIGIT cells),” for “(CHO-huTIGITcells),”
This is another data set of the same source.

For experiment [10] the target is unchanged. Put plainly: flow cytometry on CHO cells overexpressing human TIGIT, median fluorescence intensity PE-A; unit from the concentration axis.
Text: as §3, with “(CHO-huTIGIT cells),” for “(CHO-huTIGITcells),”

For experiment [11], the target named is T5, cynomolgus TIGIT overexpressed on CHO …. Put plainly: flow cytometry, CHO-cynoTIGIT cells.
Text: as §3, with “(CHO-huTIGIT cells),” for “(CHO-huTIGITcells),”
This is another data set of the same source.

Experiment [12] has as its target T1, human TIGIT expressed on cells. The experiment is described as follows: flow cytometry on activated human primary T cells (TIGIT), readout positive cell (%); unit from the concentration axis. An excerpt: The binding activity of the anti-TIGIT antibody of the present invention to TIGIT on the surface of activated T cells was detected based on the flow cytometry detection method.
Specifically, human PBMC were sorted according to the experimental protocol provided by […] Company (stemcell, Cat. No.: #17951C) to obtain human total T cells. […] The activated T cells were adjusted to an appropriate cell density and added to a 96-well flow cytometry plate. After centrifugation, the gradiently diluted sample to be tested was added, and incubated at 4° C. for 30 minutes. Washing was carried out twice with PBS, and a fluorescent secondary antibody diluted to an appropriate concentration was added, incubated at 4° C. for 30 minutes, and washed twice with PBS. […]

Experiment [13] concerns the target T2, mouse TIGIT overexpressed on CHO cells. Put plainly: flow cytometry, CHO-muTIGIT cells.
Text: as §3, with “(CHO-huTIGIT cells),” for “(CHO-huTIGITcells),”
The source holds these as a separate data set.

Experiment [14] deals with T1, human TIGIT expressed on cells. Put plainly: flow cytometry, competition with human CD155-mouse IgG2a Fc (2 ug/mL) on CHO-huTIGIT cells. How it is done:
as §1, with “monoclonal antibodies were” for “antibody was”
The source holds these as a separate data set.

Experiment [15] has the same target. Put plainly: flow cytometry blocking assay: binding of human CD155 protein with mouse IgG2a Fc tag to CHO cells overexpressing human TIGIT, median fluorescence intensity APC-A; unit from the concentration axis. The method, then: as §1, with “monoclonal antibodies were” for “antibody was”
Experiment [16] has as its target T3, cynomolgus monkey TIGIT-his protein. The experiment is described as follows: BLI (ForteBio), IgG on AHQ sensor, 100 nM TIGIT-his, monovalent, 1:1 model. The method, then:
(§5) Biofilm layer optical interference technology (ForteBio) was used to determine the binding and dissociation […] values of the anti-TIGIT monoclonal antibodies obtained in Example 1 to human, cynomolgus monkey and mouse TIGIT. Fortebio affinity measurements were performed according to existing methods (Este, P et al., High throughput solution-based measurement of antibody-antigen affinity and epitope binning. Mabs, 2013.5(2): p 270-8).
as §4

In experiment [17] the target is T4, human TIGIT-his protein. The experiment is described as above. The method, then:
as §5, §4

T3 sequence (chain, as listed by the source): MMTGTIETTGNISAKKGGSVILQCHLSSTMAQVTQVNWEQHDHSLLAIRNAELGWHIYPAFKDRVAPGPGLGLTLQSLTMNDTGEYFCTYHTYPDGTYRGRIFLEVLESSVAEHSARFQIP
T5 sequence (A0A7N9I9V4 entry or part of it): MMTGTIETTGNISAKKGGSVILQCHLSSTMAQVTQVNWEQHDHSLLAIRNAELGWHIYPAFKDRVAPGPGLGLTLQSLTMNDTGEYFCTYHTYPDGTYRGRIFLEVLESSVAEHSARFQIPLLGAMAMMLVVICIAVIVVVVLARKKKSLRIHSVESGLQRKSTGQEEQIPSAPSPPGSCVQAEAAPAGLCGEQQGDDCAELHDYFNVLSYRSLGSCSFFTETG

B1: anti-TIGIT monoclonal antibody ADI-55796 (antibody, V domains shown)
VH: QLQLQESGPGLVKPAETLSLTCTVSGGSISSYDHYWTWIRQPPGKGLEWIGTVYYSGSTFHNPSLKSRVTIPVDTSKNQFSLKLSSVTAADTAVYYCARVGPDVSHPPFDYWGQGTLVTVSS
VL: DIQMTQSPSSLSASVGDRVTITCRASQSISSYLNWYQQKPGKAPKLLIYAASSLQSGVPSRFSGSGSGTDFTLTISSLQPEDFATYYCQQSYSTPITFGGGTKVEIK
In the case of B1, the IC50 in experiment [1] was 425 pM; in [2], 889 pM. Further, the Kd in experiment [3] came out at 3120 pM; in the experiment with human TIGIT-his protein [4], 322 pM. For the same molecule, the EC50 in experiment [5] stood at 1430 pM; in experiment [6], 1000 pM; in [7], 2520 pM.

B2: anti-TIGIT monoclonal antibody 55812-G1 (antibody, human IgG1, V domains shown)
VH: QVQLVQSGAEVKKPGASVKVSCKASGYAFTGYYMHWVRQAPGQGLEWMGSIIPFSGEANYAQKFQGRVTMTRDTSISTAYMELSRLRSDDTAVYYCARGPGSLDRLWYYYYGMDVWGQGTTVTVSS
VL: not shown
notes: Wild-type human IgG1 heavy chain constant region, human kappa light chain constant region; HEK293
As for B2, the EC50 is 1120 pM in experiment [8]; 660 pM in experiment [9]; 658 pM in experiment [10]; 1130 pM in [11]; 51.8 pM in experiment [12]. Also, the binding result with mouse TIGIT-his protein was “no binding (tested: 100 nM)”; in [13] it was “no binding”. Further, the IC50 in [14] came out at 360 pM; in [15], 356 pM. The Kd in [16] was determined as 24100 pM; with human TIGIT-his protein [17], 3500 pM.

B3: anti-TIGIT monoclonal antibody ADI-55812 (antibody, V domains shown)
VH: QVQLVQSGAEVKKPGASVKVSCKASGYAFTGYYMHWVRQAPGQGLEWMGSIIPFSGEANYAQKFQGRVTMTRDTSISTAYMELSRLRSDDTAVYYCARGPGSLDRLWYYYYGMDVWGQGTTVTVSS
VL: not shown
Take B3: in experiment [1], the IC50 worked out at 296 pM. For the same molecule, the Kd in experiment [3] turned out to be 34000 pM; with human TIGIT-his protein [4], 1900 pM. For the same molecule, the EC50 in experiment [5] amounted to 964 pM; in [6], 1500 pM. In addition, the binding result in [7] is “no binding”.

B4: anti-TIGIT monoclonal antibody 55812-G1LALA (antibody, human IgG1, V domains shown)
VH: QVQLVQSGAEVKKPGASVKVSCKASGYAFTGYYMHWVRQAPGQGLEWMGSIIPFSGEANYAQKFQGRVTMTRDTSISTAYMELSRLRSDDTAVYYCARGPGSLDRLWYYYYGMDVWGQGTTVTVSS
VL: not shown
notes: Human IgG1 heavy chain constant region modified by L234A, L235A; human kappa light chain constant region; HEK293
In the case of B4, the EC50 in experiment [8] is 1280 pM; in experiment [9], 700 pM; in experiment [10], 698 pM; in [11] it was 1280 pM; in [12] it was 57 pM. Moreover, the binding result in the experiment with mouse TIGIT-his protein is on record as “no binding (tested: 100 nM)”; in experiment [13] it was “no binding”. Also, the values for the IC50 in experiment [14] and in experiment [15] were 320 pM and 319 pM, respectively. The results for the Kd (in experiment [16]; with human TIGIT-his protein [17]) were 22100 pM and 3400 pM, respectively.

What is called IC50 is the concentration that gives 50% inhibition. Usually Kd stands for the concentration at which binding is half-saturated. Broadly, the EC50 is the concentration at which the effect is half-maximal.
